Paper PMC10438374, “FAN1 removes triplet repeat extrusions via a PCNA- and RFC-dependent mechanism” (Proceedings of the National Academy of Sciences of the …, 2023)

Molecular target: T1, MutLα (MLH1/PMS2 heterodimer), recombinant human (human, UniProt P40692 1-756; P54278 1-862)
T1 construct: MLH1 subunit of human MutLα; PMS2 subunit of human MutLα; Heterodimer; source: recombinant (details in SI Appendix)
Experiment: far-Western, overlay or dot blot; far-western analysis of FAN1 and MutLα (SI Appendix, Fig. S4E); which protein was spotted is not told in the main text
Conditions: both partners purified

B1: FAN1 (FANCD2 and FANCI-associated nuclease 1), recombinant full-length human (enzyme, UniProt Q9Y2M0 1-1017, looked up)
chain: MMSEGKPPDKKRPRRSLSISKNKKKASNSIISCFNNAPPAKLACPVCSKMVPRYDLNRHLDEMCANNDFVQVDPGQVGLINSNVSMVDLTSVTLEDVTPKKSPPPKTNLTPGQSDSAKREVKQKISPYFKSNDVVCKNQDELRNRSVKVICLGSLASKLSRKYVKAKKSIDKDEEFAGSSPQSSKSTVVKSLIDNSSEIEDEDQILENSSQKENVFKCDSLKEECIPEHMVRGSKIMEAESQKATRECEKSALTPGFSDNAIMLFSPDFTLRNTLKSTSEDSLVKQECIKEVVEKREACHCEEVKMTVASEAKIQLSDSEAKSHSSADDASAWSNIQEAPLQDDSCLNNDIPHSIPLEQGSSCNGPGQTTGHPYYLRSFLVVLKTVLENEDDMLLFDEQEKGIVTKFYQLSATGQKLYVRLFQRKLSWIKMTKLEYEEIALDLTPVIEELTNAGFLQTESELQELSEVLELLSAPELKSLAKTFHLVNPNGQKQQLVDAFLKLAKQRSVCTWGKNKPGIGAVILKRAKALAGQSVRICKGPRAVFSRILLLFSLTDSMEDEDAACGGQGQLSTVLLVNLGRMEFPSYTINRKTHIFQDRDDLIRYAAATHMLSDISSAMANGNWEEAKELAQCAKRDWNRLKNHPSLRCHEDLPLFLRCFTVGWIYTRILSRFVEILQRLHMYEEAVRELESLLSQRIYCPDSRGRWWDRLALNLHQHLKRLEPTIKCITEGLADPEVRTGHRLSLYQRAVRLRESPSCKKFKHLFQQLPEMAVQDVKHVTITGRLCPQRGMCKSVFVMEAGEAADPTTVLCSVEELALAHYRRSGFDQGIHGEGSTFSTLYGLLLWDIIFMDGIPDVFRNACQAFPLDLCTDSFFTSRRPALEARLQLIHDAPEESLRAWVAATWHEQEGRVASLVSWDRFTSLQQAQDLVSCLGGPVLSGVCRHLAADFRHCRGGLPDLVVWNSQSRHFKLVEVKGPNDRLSHKQMIWLAELQKLGAEVEVCHVVAVGAKSQSLS
notes: FAN1 (FANCD2 and FANCI-associated nuclease 1), human, full length; also called FAN1 nuclease; source: recombinant; prepared as per previously established procedures (details in SI Appendix)
binding result: binds
